From US6391637
Values belong to the binder of their own block, whether it stands above or below them.

Assays:
[1] = molecular target: T1, CD40/Fc fusion protein (human, UniProt P25942 21-193); experiment: biosensor assay substantially as in Example 22 (CD40/Fc captured on the chip); Affinity Ka
T1 sequence (P25942 21-193): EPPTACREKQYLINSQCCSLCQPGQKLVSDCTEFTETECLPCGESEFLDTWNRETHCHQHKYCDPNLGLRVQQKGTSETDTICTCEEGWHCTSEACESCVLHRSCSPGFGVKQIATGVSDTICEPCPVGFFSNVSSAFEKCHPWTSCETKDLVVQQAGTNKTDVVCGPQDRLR

[2] = molecular target: T1, CD40/Fc fusion protein; experiment: BIAcore biosensor; CD40/Fc captured on the chip; first experiment; K1 (site 1)
Protocol: (§1) This example illustrates the binding affinities of several different CD40-L constructs. Affinity experiments were conducted by biospecific interaction analysis (BIA) using a biosensor, an instrument that combines a biological recognition mechanism with a sensing device or transducer. An exemplary biosensor is BIAcore™, from Pharmacia Biosensor AB (Uppsala, Sweden; see Fagerstam L.G., Techniques in Protein Chemistry II, ed. J. J. Villafranca, Acad. Press, NY, 1991). BIAcore™ uses the optical phenomenon surface plasmon resonance (Kretschmann and Raether, Z. Naturforschung, Teil. A 23:2135, 1968) to monitor the interaction of two biological molecules. Molecule pairs having affinity constants in the range 10^5 to 10^10 M^-1, and association rate constants in the range of 10^3 to 10^6 M^-1s^-1, are suitable for characterization with BIAcore™.
(§2) The biosensor chips were coated with goat anti-human IgG_1 Fc, which was used to bind CD40/Fc (prepared as described in Example 1) to the chip. The different constructs of CD40-L were then added at increasing concentrations; the chip was regenerated between the different constructs by the addition of sodium hydroxide. Two separate experiments were performed. […] The resultant data were analyzed to determine the affinity and association rate constants of the different CD40-L constructs. […]

[3] = molecular target: T1, CD40/Fc fusion protein; experiment: BIAcore biosensor; CD40/Fc captured on the chip; first experiment; K2 (site 2)
Protocol: as §1, §2

[4] = molecular target: T2, CD40/Fc fusion protein (human, UniProt P25942 21-193); experiment: BIAcore biosensor; CD40/Fc captured on the chip; first experiment; K1 (site 1)
T2 construct: extracellular domain; also called sCD40/Fc; C40/Fc; not shown: remainder of the human IgG1 Fc region (hinge onwards), joined at a Bgl II site
Protocol: as §1, §2
T2 sequence (P25942 21-193): as above

[5] = molecular target: T2, CD40/Fc fusion protein; experiment: BIAcore biosensor; CD40/Fc captured on the chip; first experiment; K2 (site 2)
Protocol: as §1, §2

- Ka [1]: 1.8e+09 M⁻¹
B1: CD40 ligand/zipper domain fusion protein mutant 194.W (ligand, not shown: a dimerising Fc or GST; small tags and cut ends)
chain: MQKGDQNPQIAAHVISEASSKTTSVLQWAEKGYYTMSNNLVTLENGKQLTVKRQGLYYIYAQVTFCSNREASSQAPFIASLWLKSPGRFERILLRAANTHSSAKPCGQQSIHLGGVFELQPGASVFVNVTDPSQVSHGTGFTSFGLLKL

- Ka [2]: 7e+09 M⁻¹
- Ka [3]: 4e+07 M⁻¹
B2: dimeric murine CD40-L (Fc fusion, prepared substantially as in Example 14) (Fc fusion)
chain: DKVEEEVNLHEDFVFIKKLKRCNKGEGSLSLLNCEEMRRQFEDLVKDITLNKEEKKENSFEMQRGDEDPQIAAHVVSEANSNAASVLQWAKKGYYTMKSNLVMLENGKQLTVKREGLYYVYTQVTFCSNREPSSQRPFIVGLWLKPSSGSERILLKAANTHSSSQLCEQQSVHLGGVFELQAGASVFVNVTEASQVIHRVGFSSFGLLKL

- Ka [4]: 1.6e+11 M⁻¹
- Ka [5]: 7e+08 M⁻¹
B3: CD40-L/FC2 soluble human CD40-L/Fc fusion protein (Fc fusion, not shown: a dimerising Fc or GST; small tags and cut ends)
chain: DKIEDERNLHEDFVFMKTIQRCNTGERSLSLLNCEEIKSQFEGFVKDIMLNKEETKKENSFEMQKGDQNPQIAAHVISEASSKTTSVLQWAEKGYYTMSNNLVTLENGKQLTVKRQGLYYIYAQVTFCSNREASSQAPFIASLCLKSPGRFERILLRAANTHSSAKPCGQQSIHLGGVFELQPGASVFVNVTDPSQVSHGTGFTSFGLLKL
notes: also called dimeric human CD40-L; Human Dimer
